The values that follow come from publication doi:10.1101/404996 (bioRxiv, 2018).

First the molecules themselves.
B1: HIV-1 protease Flap+(I54A) (L10I, G48V, I54A, V82A on the pWT backbone) (enzyme)
chain: not shown
B2: HIV-1 protease, pseudo wild type (pWT) (enzyme)
chain: not shown
B3: HIV-1 protease Flap+(I54) (L10I, G48V, V82A on the pWT backbone) (enzyme)
chain: not shown
B4: HIV-1 protease Flap+(I54V) (L10I, G48V, I54V, V82A on the pWT backbone) (enzyme)
chain: not shown

The series concerns the molecule itself. The series can be described thus: other fluorescence titration.
Regarding B1, the dissociation constant Kd (as a rule, a measure of binding affinity in units of concentration) is under 250 nM.
Next, B2: under 250 nM; B3: under 250 nM; B4: under 250 nM.
